Literature values, collected in paper PMC8828474.

Biological target: Spike RBD (SARS-CoV-2) (UniProt P0DTC2)

bamlanivimab
Kd: 0.8 nM
